In paper PMC8444507 (Signal Transduction and Targeted Therapy, 2021):
Values joined by “and” are separate entries in the source; they are usually repeats but may differ in a detail not shown here. Equal values may be shown once.

Molecular target: T1, wild-type human ACE2 peptidase domain (PD) (human, UniProt Q9BYF1 19-615)
T1 construct: also called ACE2/WT; ACE2 WT
Assay: SPR
Settings: both partners purified

T1 sequence (Q9BYF1 19-615): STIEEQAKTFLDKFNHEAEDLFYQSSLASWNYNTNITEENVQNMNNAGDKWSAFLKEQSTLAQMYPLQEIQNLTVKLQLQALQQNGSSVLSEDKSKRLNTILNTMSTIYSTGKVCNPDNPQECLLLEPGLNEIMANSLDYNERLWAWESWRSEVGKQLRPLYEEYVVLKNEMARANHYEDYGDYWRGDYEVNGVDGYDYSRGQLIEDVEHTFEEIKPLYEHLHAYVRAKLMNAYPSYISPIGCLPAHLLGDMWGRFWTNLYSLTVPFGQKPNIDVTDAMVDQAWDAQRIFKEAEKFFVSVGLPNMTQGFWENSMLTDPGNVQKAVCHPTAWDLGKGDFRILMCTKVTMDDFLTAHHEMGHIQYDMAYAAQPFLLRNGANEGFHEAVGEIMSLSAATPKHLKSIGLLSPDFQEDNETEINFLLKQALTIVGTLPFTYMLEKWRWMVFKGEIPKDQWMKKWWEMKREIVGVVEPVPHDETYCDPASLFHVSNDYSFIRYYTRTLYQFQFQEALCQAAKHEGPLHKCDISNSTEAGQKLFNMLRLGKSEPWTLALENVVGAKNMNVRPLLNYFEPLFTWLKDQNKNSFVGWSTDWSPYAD

B1: SARS-CoV spike receptor-binding domain (S-RBD), wild-type (domain or fragment)
chain: not shown
With B1 the Kd was 523 nM and 971 nM and 500 nM.
